According to publication doi:10.1101/2025.04.17.649292:

Biological target: poly-L-proline (PLP) coupled to Sepharose 4B
Assay: affinity chromatography on poly-L-proline Sepharose

## GST-δLdPfn (LdPfn with amino acids 110 to 128 deleted, N-terminal GST tag) (natural protein)
  reduction of binding to PLP relative to GST-LdPfn: 30%
